Measured values reported in the supplement of paper PMC10126150.
± gives the standard deviation of the averaged measurements.

System: ATP
Assay: switch fluorescence ratio, 500 uM ATP over buffer (Cy3 cluster intensity, sum of 5 cycles each) (fold (ratio)); higher = stronger signal-on switching upon ATP binding; sequences stand for … in TCGTCGGCAGCGTCAGATGTGTATAAGAGACAGTTTTTTTTTTTTTTTTTTTTTTTTT…TC
Details: aptamer strand: ATP DNA aptamer (quencher-CACCTGGGGGAGTATTGCGGAGGAAGG + anchor), 100 nM annealed; ATP concentration: 500 uM
Method in brief: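 Clusters carrying Cy3-labelled switching strands on a modified Illumina MiSeq flow-cell were annealed to 100 nM quencher-labelled ATP aptamer and imaged in selection buffer. They were imaged again after 15 min with 500 uM ATP at 22 °C, over five buffer/ATP cycles with NaOH stripping and re-annealing in between. For each cluster, the fluorescence ratio is the summed Cy3 intensity of the target cycles divided by that of the buffer cycles, averaged per switch-domain sequence. Clusters outside 100-1000 RFU were left out.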
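Note: ATP exposure 15 min at 22 °C before imaging.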

Sequence | switch fluorescence ratio
GCTAGGTTTG | 0.998 ± 0.054
TATCGGCAAT | 4.42 ± 0.76
CATTGGCCGG | 1.095 ± 0.0025
ATCTAGGGGA | 0.9995 ± 0.0066
GATGGGTATT | 0.968 ± 0.015
ACGGGATCAT | 1.07 ± 0.054
ACCCCTGGGC | 1.16 ± 0.041
CACGGCAGCT | 1.09 ± 0.02
ATGTTATGG | 1.01 ± 0.011
TTTAAATTAA | 0.9938 ± 0.0026
TATAAGGTCC | 0.98 ± 0.019
AATTGGGTAA | 1.025 ± 0.0083
ACGGCCTAAA | 0.98 ± 0.043
TGAAATTTAA | 1 ± 0.0065
GTGATATGAG | 1.01 ± 0.036
AATCTATAAT | 1.007 ± 0.0018
TTAAAATTCT | 1.04 ± 0.06
TTTTCAGGGG | 1.03 ± 0.049
TGAGAGCAGG | 1.08 ± 0.025
AAAAGGGGAT | 0.997 ± 0.036
GGTTTGCTAG | 1.04 ± 0.072
GGTTTTAGGT | 0.988 ± 0.035
TACAGGATGG | 0.9694 ± 0.0057
AAGGCGAGGT | 0.994 ± 0.022
ATTTTTGTTT | 0.985 ± 0.023
ACCTGGGTAC | 1.03 ± 0.055

Sequence | switch fluorescence ratio
CGGGGTCTGA | 0.953 ± 0.028
TAGTGGGCGA | 1.01 ± 0.067
TGTGGTAGAA | 0.989 ± 0.023
AGGGTCCTAC | 1.02 ± 0.047
CGAGTCGACG | 0.99 ± 0.07
TTAAAATCAC | 1.09 ± 0.077
AGTGGGGCCA | 1.03 ± 0.044
TTTCGGTCAC | 0.983 ± 0.0036
TGAATTTGTT | 0.995 ± 0.038
AAACGTTAGA | 1.03 ± 0.0082
TTTAGTCACT | 1.03 ± 0.022
TCTTGTAATC | 1.07 ± 0.055
AGAAAAGGGG | 1.01 ± 0.054
TCTAGTAAAT | 1.01 ± 0.015
AAGACTTGGG | 1.05 ± 0.029
TCATTTCGGC | 0.982 ± 0.032
AGGAATCCGG | 1.03 ± 0.026
AAGTTTTTAT | 0.971 ± 0.019
GCGGGGCGGG | 1.02 ± 0.017
TGTAACGAAA | 1.008 ± 0.0027
TCGGTGGGTA | 0.983 ± 0.013
GCGTTAGTAG | 0.9971 ± 0.0082
TGTCGGGATT | 1.03 ± 0.053
CTCTATAACT | 1.0133 ± 0.00043
TAGGTCCTTG | 0.9851 ± 0.0061
TGTGCTCGGA | 1.04 ± 0.1

Sequence | switch fluorescence ratio
GGCTAGCCTA | 1.01 ± 0.013
ATTATGAATC | 1.02 ± 0.078
TCGCTTGGGA | 1.03 ± 0.017
ACTGATGAAT | 1.06 ± 0.023
CCGAGTTAAG | 1.08 ± 0.012
CATGCAGCAT | 1.11 ± 0.02
TCCAGTGTCG | 1.01 ± 0.056
TAGATATGAG | 1.009 ± 0.0012
AAGAGGGATT | 0.983 ± 0.03
GGATCCTGCA | 1.04 ± 0.052
ATTTGGGGGC | 0.973 ± 0.057
TTTTGTGGCG | 1.04 ± 0.033
TTGGGGTGCG | 0.995 ± 0.011
GGGGTGTTGC | 0.999 ± 0.056
GAGGTTAGGA | 1 ± 0.012
CCTGATTTGA | 0.989 ± 0.02
TCTGGGGTTA | 1 ± 0.018
GTTTATGTTA | 1.017 ± 0.0018
GGACTTATGG | 0.9851 ± 0.0091
GCGTTCACGG | 0.988 ± 0.026
ATTTAACGTC | 1.02 ± 0.08
GCCAATGGGG | 0.989 ± 0.026
AAGATAACGG | 1.07 ± 0.048
TGAGACTTAC | 1.15 ± 0.06
GTTCTAGATT | 1.03 ± 0.067
GGGTGGGTAG | 0.955 ± 0.037

Sequence | switch fluorescence ratio
TTTGTAGGAT | 1.04 ± 0.014
GGCTGGGGGG | 0.997 ± 0.02
TTAAGTCCGC | 1.17 ± 0.034
TCAAAAAATT | 1.02 ± 0.037
TTCGAGGTGC | 1.04 ± 0.05
CGGGGGGGCT | 0.997 ± 0.026
GGTTAAAATC | 1.02 ± 0.023
CGAGATCAAG | 0.971 ± 0.013
TGAAGGATTT | 1.01 ± 0.034
CAAACTCCCA | 1.16 ± 0.18
CTGGGTCCGG | 1.01 ± 0.024
GTTATCATTA | 1.02 ± 0.03
ATCTGAAGGT | 0.975 ± 0.031
ATGAAATCAG | 0.9991 ± 0.0044
TCTATTCCCT | 1.02 ± 0.027
GTAGTATGCA | 1.01 ± 0.02
GGTTAATTAG | 0.9819 ± 0.0077
GTGTATGGAT | 1.023 ± 0.0066
ATACTGTCGC | 1.0874 ± 0.0002
CGCTAGGGGA | 1.07 ± 0.041
CTTAATTTGA | 0.984 ± 0.058
CGCACGGGGG | 1.01 ± 0.031
TTACTTCAGG | 1.032 ± 0.0026
GGATGTAGAA | 1.026 ± 0.0011
GGAAGGGGCC | 1.03 ± 0.086
TTTTGTATTT | 0.988 ± 0.035

Sequence | switch fluorescence ratio
CCAGGGAGTG | 1.04 ± 0.015
TGGGTGGGGC | 0.997 ± 0.018
AATTCGTTAC | 1.63 ± 0.76
TCTTGGGGG | 1.05 ± 0.012
AGGTGTTCCG | 1.04 ± 0.084
TTCGGAGGCT | 1.23 ± 0.3
CACTAAGGGA | 0.996 ± 0.014
CGAAGCGTCA | 1.081 ± 0.0014
GTTTCAATGC | 1.31 ± 0.1
TCATCTTGGC | 1.02 ± 0.096
AGTGTTAGGA | 1.02 ± 0.011
GCCGGGATCG | 0.97 ± 0.03
TTCCATTTGC | 1.05 ± 0.074
GGAAATAGTG | 0.966 ± 0.044
TAGCTGGGGG | 0.995 ± 0.021
ACGGTGGACT | 1 ± 0.035
GCACGGCGTA | 1.04 ± 0.038
GGGTTCCTGG | 0.995 ± 0.028
TGTTGAACGT | 1.004 ± 0.0086
TTAAAGCACG | 1.07 ± 0.023
GTGGGGCGGG | 0.999 ± 0.02
ATGGTTTTT | 0.984 ± 0.022
TATGGGGGGA | 1.02 ± 0.046
TGGGTAGTTT | 1 ± 0.015
CTGCTTGGTT | 1.001 ± 0.0047
CGCGAGGGCC | 1.1 ± 0.08

Sequence | switch fluorescence ratio
ACCAGGGGGT | 1.05 ± 0.09
ATAGATCAGC | 0.995 ± 0.025
TGATTGCCGG | 0.996 ± 0.02
CACGGCCGGA | 1.03 ± 0.052
GGGGTCTTTT | 0.999 ± 0.033
ATTCGGCCTT | 1.01 ± 0.043
AAACTTGGCA | 1.017 ± 0.0088
CGAACGGTTG | 1.0261 ± 1.1e-05
TATTGTATGA | 1.029 ± 0.0049
GCATTATTTG | 1.05 ± 0.02
GTTTTGATTG | 1 ± 0.04
AACTGGGGA | 0.967 ± 0.015
GTTTCCAGGT | 1.16 ± 0.017
GGGAAGTCCG | 0.974 ± 0.03
TATAAGTACG | 1.27 ± 0.016
ATGGGTCGGA | 1.01 ± 0.053
CCGCTTGAGA | 1.08 ± 0.025
TGCCTGTCTA | 1.02 ± 0.018
GCCGTTACTG | 1.05 ± 0.031
CCAGTGAATA | 1.06 ± 0.021
GCATTTCTTC | 1.03 ± 0.04
GATAGGGGCT | 0.938 ± 0.042
GTGGGGATGG | 0.966 ± 0.024
